From PMC11612773 (2024)

B1: recombinant Arabidopsis dehydrin LEA14 (AT2G21490) with carboxy-terminal hexahistidyl tag (natural protein)
chain: MADLRDEKGNPIHLTDTQGNPIVDLTDEHGNPMYLTGVVSSTPQHKESTTSDIAEHPTSTVGETHPAAAPAGAGAATAATATGVSAGTGATTTGQQHHGSLEEHLRRSGSSSSSSSEDDGQGGRRKKSIKEKIKEKFGSGKHKDEQTPATATTTGPATTDQPHEKKGILEKIKDKLPGHHNHNHP
B2: recombinant soybean dehydrin GmPM12 (Glyma.04G009900.1) with carboxy-terminal hexahistidyl tag (natural protein)
chain: MAEAQLRDQHGNPVPLTDQYGNPVILTDERGNPVQLTGVATTATGTAGSGFGSYGTGAYGGGASATTVADLLATQPRSGREARELRRSSSSSSSSSEDDGQGGRRKKGVKDKIKEKLPGVGGGNNNKEHAHTTTAPTTATNHPADQHEKKGIMERIKEKLPGHHTHLE

Molecular target: the molecule itself

Row | Protein | Kd [µM]
1 | B1 | 13.3
2 | B2 | 6.8
